Test in all cases: holdup assay
Parameters in all cases: key: below the threshold = too weak to quantify, mostly under pKd 3.1 to 4
Conditions in all cases: plain residues with an end cap or a label only (N-terminal biotin on a linker: ttds)

The target in experiment [1] is T1, APBA3_2, O96018.
T1 sequence (O96018 480-570, limits assumed, looked up): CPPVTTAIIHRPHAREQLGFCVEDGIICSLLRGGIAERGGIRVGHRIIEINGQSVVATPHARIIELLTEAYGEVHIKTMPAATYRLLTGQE

The target in experiment [2] is CNKSR3, Q6P9H4.
The target in experiment [3] is T2, DVL1, O14640.
T2 sequence (O14640 246-333, limits assumed, looked up): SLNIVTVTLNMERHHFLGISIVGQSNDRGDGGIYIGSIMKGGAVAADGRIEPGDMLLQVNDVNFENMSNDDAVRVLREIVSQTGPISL

The target in experiment [4] is LIMK1, P53667.
Chain of LIMK1, P53667 (P53667 155-268): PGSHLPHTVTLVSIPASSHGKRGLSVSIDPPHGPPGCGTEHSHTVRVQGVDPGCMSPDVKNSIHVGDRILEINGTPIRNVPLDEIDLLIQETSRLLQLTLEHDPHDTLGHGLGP
The target in experiment [5] is MAGI3_6, Q5TCQ9.
Chain of MAGI3_6, Q5TCQ9 (Q5TCQ9 1014-1103): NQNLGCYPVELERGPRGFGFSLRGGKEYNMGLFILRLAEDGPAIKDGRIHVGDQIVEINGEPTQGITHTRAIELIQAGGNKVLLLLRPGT
For experiment [6], the target named is MAGIX, Q9H6Y5.
Chain of MAGIX, Q9H6Y5 (Q9H6Y5 118-211): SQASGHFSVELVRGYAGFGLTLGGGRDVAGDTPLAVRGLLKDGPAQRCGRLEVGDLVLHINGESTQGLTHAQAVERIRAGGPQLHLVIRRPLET
Experiment [7] concerns the target T3, NHERF1_1, O14745.
T3 sequence (O14745 9-104, limits assumed, looked up): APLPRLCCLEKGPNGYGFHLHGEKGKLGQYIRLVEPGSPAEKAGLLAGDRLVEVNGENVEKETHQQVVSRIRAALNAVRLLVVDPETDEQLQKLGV

In experiment [8] the target is T4, NHERF3_2, Q5T2W1.
T4 sequence (Q5T2W1 129-225, limits assumed, looked up): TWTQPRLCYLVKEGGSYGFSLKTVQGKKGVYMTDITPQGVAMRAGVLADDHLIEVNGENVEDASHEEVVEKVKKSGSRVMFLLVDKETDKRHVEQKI

Experiment [9] has as its target T5, PDLIM3, Q53GG5.
T5 sequence (Q53GG5 1-94, limits assumed, looked up): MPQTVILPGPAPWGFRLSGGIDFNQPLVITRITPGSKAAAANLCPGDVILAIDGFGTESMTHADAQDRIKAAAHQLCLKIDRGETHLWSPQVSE

The target of experiment [10] is T6, PDZD2_3, O15018.
T6 sequence (O15018 581-682, limits assumed, looked up): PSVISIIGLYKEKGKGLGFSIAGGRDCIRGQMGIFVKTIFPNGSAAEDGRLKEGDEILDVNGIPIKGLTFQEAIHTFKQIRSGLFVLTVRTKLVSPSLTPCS

For experiment [11], the target named is T7, PDZD2_5, O15018.
T7 sequence (O15018 2617-2716, limits assumed, looked up): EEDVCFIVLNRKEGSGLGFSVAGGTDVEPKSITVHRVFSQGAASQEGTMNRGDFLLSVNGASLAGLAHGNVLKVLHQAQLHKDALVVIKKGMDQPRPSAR

Experiment [12] has as its target T8, PDZD2_6, O15018.
T8 sequence (O15018 2745-2839, limits assumed, looked up): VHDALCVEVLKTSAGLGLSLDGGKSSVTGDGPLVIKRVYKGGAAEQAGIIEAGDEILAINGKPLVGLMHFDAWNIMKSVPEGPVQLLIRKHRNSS

For experiment [13], the target named is PDZD9, Q8IXQ8.
Chain of PDZD9, Q8IXQ8 (Q8IXQ8 23-120): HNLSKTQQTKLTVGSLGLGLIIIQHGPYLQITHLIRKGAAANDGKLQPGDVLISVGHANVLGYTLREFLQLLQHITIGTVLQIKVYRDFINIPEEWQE
For experiment [14], the target named is PTPN13_2, Q12923.
Chain of PTPN13_2, Q12923 (Q12923 1363-1462): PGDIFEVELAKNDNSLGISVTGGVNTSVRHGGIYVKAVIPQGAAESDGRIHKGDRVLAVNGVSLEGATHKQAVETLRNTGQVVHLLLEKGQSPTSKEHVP
Experiment [15] concerns the target T9, PTPN13_4, Q12923.
T9 sequence (Q12923 1783-1878, limits assumed, looked up): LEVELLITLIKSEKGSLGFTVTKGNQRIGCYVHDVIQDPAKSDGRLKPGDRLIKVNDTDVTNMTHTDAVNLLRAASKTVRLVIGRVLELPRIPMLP

For experiment [16], the target named is T10, PTPN13_5, Q12923.
T10 sequence (Q12923 1877-1975, limits assumed, looked up): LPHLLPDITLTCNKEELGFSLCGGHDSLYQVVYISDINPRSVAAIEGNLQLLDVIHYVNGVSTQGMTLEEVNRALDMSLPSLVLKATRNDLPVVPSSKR

The target of experiment [17] is T11, SHROOM2, Q13796.
T11 sequence (Q13796 21-118, limits assumed, looked up): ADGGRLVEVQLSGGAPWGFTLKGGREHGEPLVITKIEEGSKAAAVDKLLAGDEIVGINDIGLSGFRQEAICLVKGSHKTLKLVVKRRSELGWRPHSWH

Experiment [18] has as its target T12, SHROOM4, Q9ULL8.
T12 sequence (Q9ULL8 5-102, limits assumed, looked up): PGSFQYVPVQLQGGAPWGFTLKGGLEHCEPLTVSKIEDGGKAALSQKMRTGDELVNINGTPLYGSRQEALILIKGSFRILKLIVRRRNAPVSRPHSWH

The target in experiment [19] is T13, SIPA1L3, O60292.
T13 sequence (O60292 961-1052, limits assumed, looked up): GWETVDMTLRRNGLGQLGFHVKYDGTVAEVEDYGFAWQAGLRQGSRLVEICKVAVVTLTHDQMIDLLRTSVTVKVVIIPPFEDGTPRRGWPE

For experiment [20], the target named is T14, TJP3_1, O95049.
T14 sequence (O95049 6-103, limits assumed, looked up): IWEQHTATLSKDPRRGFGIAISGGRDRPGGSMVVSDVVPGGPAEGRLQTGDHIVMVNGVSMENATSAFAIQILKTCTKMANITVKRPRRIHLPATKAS

Experiment [21] deals with T15, USH1C_2, Q9Y6N9.
T15 sequence (Q9Y6N9 206-303, limits assumed, looked up): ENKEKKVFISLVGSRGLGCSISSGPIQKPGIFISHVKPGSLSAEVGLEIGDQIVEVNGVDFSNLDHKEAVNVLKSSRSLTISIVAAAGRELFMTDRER

By pKd is commonly meant the Kd on a negative log10 scale, so that one unit is a factor of ten.

Chain of CNKSR3, Q6P9H4 (Q6P9H4 203-303): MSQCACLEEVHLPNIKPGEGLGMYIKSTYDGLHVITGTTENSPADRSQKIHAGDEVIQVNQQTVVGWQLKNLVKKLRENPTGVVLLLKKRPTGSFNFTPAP

B1: CYSLTR2, Q9NS75 (peptide)
chain: SVWLRKETRV
Turning to B1, the pKd entry in [1] was “below the threshold”; in experiment [2] it was “below the threshold”; in experiment [3], 4.32; in experiment [4], “below the threshold”; in experiment [5], “below the threshold”; in experiment [6], “below the threshold”. For the same molecule, the pKd entry in experiment [7], in [8], in experiment [9], in [10], in [11] and in experiment [12] was “below the threshold” throughout. Further, the pKd entry was “below the threshold” in experiment [13]; “below the threshold” in experiment [14]; “below the threshold” in experiment [15]; “below the threshold” in experiment [16]; 4.35 in experiment [17]; “below the threshold” in [18]. Moreover, the negative-log Kd (pKd) result in experiment [19], in experiment [20] and in experiment [21] was “below the threshold” in each case.

B2: HPV67-E6, A4U7F2 (peptide)
chain: SRPQRTQTQV
Turning to B2, the pKd entry in experiment [1], in experiment [2], in experiment [3], in experiment [4], in experiment [5] and in experiment [6] was “below the threshold” throughout. Further, the pKd entry in experiment [7], in [8], in [9], in experiment [10], in [11] and in experiment [12] was “below the threshold” in each case. Further, the pKd result in experiment [13], in experiment [14], in [15], in experiment [16], in experiment [17] and in experiment [18] was “below the threshold” in each case. The pKd entry in experiment [19], in experiment [20] and in [21] was “below the threshold” in each case.

B3: GRASP, Q7Z6J2 (peptide)
chain: RSLEEEESQL
Take B3: the pKd was 4.18 in experiment [1]; 4.6 in [2]; “below the threshold” in experiment [3]; 4.27 in [4]; 4.14 in experiment [5]; “below the threshold” in [6]. The pKd in experiment [7] was 4.46; in experiment [8] it was “below the threshold”; in [9], “below the threshold”; in experiment [10], “below the threshold”; in experiment [11], 4.22; in experiment [12], “below the threshold”. The pKd result in experiment [13], in experiment [14], in experiment [15], in experiment [16], in experiment [17] and in experiment [18] was “below the threshold” in each case. Further, the pKd entry in [19], in [20] and in experiment [21] was “below the threshold” in each case.

B4: KIR3DL3, Q8N743 (peptide)
chain: PKTPPTDTSV
In the case of B4, the pKd result in [1], in experiment [2], in experiment [3], in experiment [4], in experiment [5] and in [6] was “below the threshold” throughout. Also, the pKd result in [7] is “below the threshold”; in experiment [8], “below the threshold”; in [9] it was “below the threshold”; in experiment [10], 4.08; in experiment [11], “below the threshold”; in experiment [12] it was “below the threshold”. For the same molecule, the pKd entry in experiment [13], in experiment [14], in [15], in experiment [16], in experiment [17] and in experiment [18] was “below the threshold” each time. Moreover, the pKd entry in experiment [19], in experiment [20] and in [21] was “below the threshold” in each case.

B5: HPV16-E6, P03126 (peptide)
chain: SSRTRRETQL
For B5, the pKd entry in experiment [1], in experiment [2], in [3], in experiment [4], in [5] and in [6] was “below the threshold” each time. In addition, the pKd was 4.15 in experiment [7]; “below the threshold” in [8]; 3.88 in experiment [9]; “below the threshold” in experiment [10]; “below the threshold” in experiment [11]; “below the threshold” in [12]. For the same molecule, the pKd was 4.06 in [13]; “below the threshold” in experiment [14]; “below the threshold” in experiment [15]; “below the threshold” in [16]; “below the threshold” in experiment [17]; “below the threshold” in experiment [18]. The pKd result in [19] is “below the threshold”; in experiment [20], “below the threshold”; in [21], 3.92.

(Values after publication PMC9482650, “Quantitative fragmentomics allow affinity mapping of interactomes” (Nature Communications, 2022).)
